From paper PMC10949315, “RrA, an enzyme from Rhodospirillum rubrum, is a prototype of a new family of short‐chain L‐asparaginases” (Protein Science : A Publication of the Protein Society, 2024)

What was measured:
[1] = biological target: RrA(Y21F) (Rhodospirillum rubrum); experiment: dynamic light scattering; protein at 0.22-1.1 mM in the standard buffer (50 mM HEPES, 200 mM NaCl, pH 7), 20°C, DynaPro Nanostar; proteins modelled as globular; oligomer in solution
[2] = biological target: RrA(Y21F) (Rhodospirillum rubrum); experiment: crystal structure; hanging drops, 293 K, protein 19-21 mg/mL in the standard buffer, with or without L-Asp; tetramer as a dimer of tight dimers, in the asymmetric unit or made by crystal symmetry
[3] = biological target: RrA(K19E) (Rhodospirillum rubrum); experiment: dynamic light scattering; protein at 0.22-1.1 mM in the standard buffer (50 mM HEPES, 200 mM NaCl, pH 7), 20°C, DynaPro Nanostar; proteins modelled as globular; oligomer in solution
[4] = biological target: RrA(K19E) (Rhodospirillum rubrum); experiment: crystal structure; hanging drops, 293 K, protein 19-21 mg/mL in the standard buffer, with or without L-Asp; tetramer as a dimer of tight dimers, in the asymmetric unit or made by crystal symmetry
[5] = biological target: RrA(Y21A) (Rhodospirillum rubrum); experiment: dynamic light scattering; protein at 0.22-1.1 mM in the standard buffer (50 mM HEPES, 200 mM NaCl, pH 7), 20°C, DynaPro Nanostar; proteins modelled as globular; oligomer in solution
[6] = biological target: RrA(Y21A) (Rhodospirillum rubrum); experiment: crystal structure; hanging drops, 293 K, protein 19-21 mg/mL in the standard buffer, with or without L-Asp; tetramer as a dimer of tight dimers, in the asymmetric unit or made by crystal symmetry
[7] = biological target: RrA(K19Q) (Rhodospirillum rubrum); experiment: dynamic light scattering; protein at 0.22-1.1 mM in the standard buffer (50 mM HEPES, 200 mM NaCl, pH 7), 20°C, DynaPro Nanostar; proteins modelled as globular; oligomer in solution
[8] = biological target: RrA(K19Q) (Rhodospirillum rubrum); experiment: crystal structure; hanging drops, 293 K, protein 19-21 mg/mL in the standard buffer, with or without L-Asp; tetramer as a dimer of tight dimers, in the asymmetric unit or made by crystal symmetry
[9] = biological target: RrA(K158M) (Rhodospirillum rubrum); experiment: dynamic light scattering; protein at 0.22-1.1 mM in the standard buffer (50 mM HEPES, 200 mM NaCl, pH 7), 20°C, DynaPro Nanostar; proteins modelled as globular; oligomer in solution
[10] = biological target: RrA(K158M) (Rhodospirillum rubrum); experiment: crystal structure; hanging drops, 293 K, protein 19-21 mg/mL in the standard buffer, with or without L-Asp; tetramer as a dimer of tight dimers, in the asymmetric unit or made by crystal symmetry
[11] = biological target: RrA(K19A) (Rhodospirillum rubrum); experiment: dynamic light scattering; protein at 0.22-1.1 mM in the standard buffer (50 mM HEPES, 200 mM NaCl, pH 7), 20°C, DynaPro Nanostar; proteins modelled as globular; oligomer in solution
[12] = biological target: RrA(K19A) (Rhodospirillum rubrum); experiment: crystal structure; hanging drops, 293 K, protein 19-21 mg/mL in the standard buffer, with or without L-Asp; tetramer as a dimer of tight dimers, in the asymmetric unit or made by crystal symmetry
RrA [13] = biological target: T1, RrA (Rhodospirillum rubrum, UniProt Q2RMX1); experiment: nanoDSF back-reflection, aggregation onset; assay type: binding; conditions: 20 mM ligand, 0.1 M Na-citrate pH 5.0, 0.2 M NaCl; 42.3 °C without ligand
T1 construct: gene Rru_A3730; full length, 172 residues, Lys149 natural variant (Glu149 in the first report); synthetic gene in pET15b, N-terminal His6 tag removed by TEV protease, expressed in E. coli BL21(DE3) RIPL; homotetramer, active site completed by Tyr21 and Asn26 of another protomer
T1 sequence (Q2RMX1 1-172): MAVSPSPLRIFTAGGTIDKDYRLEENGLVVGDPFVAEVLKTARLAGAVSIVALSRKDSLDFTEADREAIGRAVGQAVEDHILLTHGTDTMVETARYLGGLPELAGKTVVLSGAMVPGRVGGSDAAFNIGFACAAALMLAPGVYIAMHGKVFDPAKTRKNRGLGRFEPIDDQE

RrA [14] = biological target: T2, RrA (Rhodospirillum rubrum, UniProt Q2RMX1, Y21F); experiment: X-ray crystal structure, […] Å; assay type: binding; conditions: active site, three of four protomers; also 8up3 (co-purified L-Asp in some protomers)
T2 construct: gene Rru_A3730; full length, 172 residues, Lys149 natural variant (Glu149 in the first report); synthetic gene in pET15b, N-terminal His6 tag removed by TEV protease, expressed in E. coli BL21(DE3) RIPL; homotetramer, active site completed by Tyr21 and Asn26 of another protomer
T2 sequence (Q2RMX1 entry or part of it Y21F): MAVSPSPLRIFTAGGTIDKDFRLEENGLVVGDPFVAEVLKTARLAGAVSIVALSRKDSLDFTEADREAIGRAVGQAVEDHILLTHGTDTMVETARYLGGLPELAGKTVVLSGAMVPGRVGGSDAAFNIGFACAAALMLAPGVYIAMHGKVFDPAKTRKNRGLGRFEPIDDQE

[15] = substrate: NC(=O)C[C@H](N)C(=O)O; experiment: ammonia release by Nessler's reagent, A480; Lineweaver-Burk; assay type: biochemical, Rhodospirillum rubrum; conditions: PBS pH 7.4, 20 °C, substrate inhibition above 5 mM
[16] = biological target: the molecule itself; experiment: mass photometry; RrA(wt) at 25 nM and 65 nM in the standard buffer (50 mM HEPES, 200 mM NaCl, pH 7), 20°C, Refeyn TwoMP; minor lower-mass peak only in the 25 nM sample
[17] = biological target: the molecule itself; experiment: dynamic light scattering; protein at 0.22-1.1 mM in the standard buffer (50 mM HEPES, 200 mM NaCl, pH 7), 20°C, DynaPro Nanostar; proteins modelled as globular; oligomer in solution

RrA(Y21F) (enzyme)
stoichiometry N [1]: 4 | stoichiometry N [2]: 4

RrA(K19E) (enzyme)
stoichiometry N [3]: 4 | stoichiometry N [4]: 4

RrA(Y21A) (enzyme)
stoichiometry N [5]: 4 | stoichiometry N [6]: 4

RrA(K19Q) (enzyme)
stoichiometry N [7]: 4 | stoichiometry N [8]: 4

RrA(K158M) (enzyme)
stoichiometry N [9]: 4 | stoichiometry N [10]: 4

RrA(K19A) (enzyme)
stoichiometry N [11]: 4 | stoichiometry N [12]: 4

N[C@@H](CCC(=O)O)C(=O)O [L‐Glu]
T agg (RrA [13]): 61.5 °C

N[C@@H](CC(=O)O)C(=O)O [L‐Asp]
X-ray crystal structure, 1.90 Å (RrA [14]): the ligand was present in three out of four protomers | T agg (RrA [13]): 61.3 °C

B1: RrA(wt), short-chain L-asparaginase from Rhodospirillum rubrum (enzyme, UniProt Q2RMX1 1-172, looked up)
chain: MAVSPSPLRIFTAGGTIDKDYRLEENGLVVGDPFVAEVLKTARLAGAVSIVALSRKDSLDFTEADREAIGRAVGQAVEDHILLTHGTDTMVETARYLGGLPELAGKTVVLSGAMVPGRVGGSDAAFNIGFACAAALMLAPGVYIAMHGKVFDPAKTRKNRGLGRFEPIDDQE
notes: L-asparaginase RrA of Rhodospirillum rubrum, synthetic gene of GenBank QXG80441.1; protomer of 172 residues (Met1 traced in the structure); the GenBank entry and the PDB entries hold; source: E. coli BL21(DE3) RIPL, pET15b, purified (HisTrap, TEV cleavage, second HisTrap flow-through, Superdex 75); not shown: His6, N-terminal, cleaved
Km [15]: 3.6 ± 0.3 mM | kcat [15]: 58.2 ± 3.0 s⁻¹ | stoichiometry N [16]: 2 | stoichiometry N [17]: 4
